Source: article PMC4263579

Target: recombinant NS1 protein (dengue virus non-structural 1 protein)
Assay: native gel or EMSA; Native-PAGE of the recombinant NS1 protein; data not shown

recombinant NS1 protein (dengue virus non-structural 1 protein)
stoichiometry N: 6
